Patent publication EP2103936A1 (Institut Pasteur, dated 2009)
Several values for one entry are separate records, joined by “and”; a condition that tells them apart may be missing. Identical values can stand only once.

Molecular target: maltose binding protein MalE from E. coli (Escherichia coli, UniProt P0AEX9 27-396 = MBP)

B1: DarpOff7(wt) (designed binder)
chain: MRGSHHHHHHGSDLGRKLLEAARAGQDDEVRILMANGADVNAADNTGTTPLHLAAYSGHLEIVEVLLKHGADVDASDVFGYTPLHLAAYWGHLEIVEVLLKNGADVNAMDSDGMTPLHLAAKWGYLEIVEVLLKHGADVNAQDKFGKTAFDISIDNGNEDLAEILQKLN
- Kd: 11 nM and 5.6 nM
